According to the supplement of paper PMC7125110:
± gives the standard error. Variants at the floor of the assay were thinned out.

B1: glmS ribozyme (parent)
chain: AUAAAAGCGCCAGAACUACAGAAAUGUAGUUGACGAGGAGGAGGUUUAUCGAAUUUUCGGCGGAUGCCUCCAAA

Assays:
Settings in all cases: with glucosamine-6-phosphate
[1] = variants of: B1; test: self-cleavage kobs at 640 uM GlcN6P; higher = faster cleavage; RNA array
Method in brief: (§1)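 Barcoded ribozyme variants on sequenced MiSeq chips were transcribed in situ by E. coli RNA polymerase and followed at 37 °C through a hybridised Cy3 probe. Glucosamine-6-phosphate at 40 μM to 10 mM in HEPES/KCl/Mg(OAc)2 buffer was flowed in, and tiles were imaged over ~14 h. Signals were normalised to baseline and to non-cleaving reference variants, and per-tile medians were fit to one- or two-exponential decays to give kobs. Weighted Michaelis–Menten fits across concentrations gave kcat and KM.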

[2] = variants of: B1; test: self-cleavage kobs at 2500 uM GlcN6P; higher = faster cleavage; RNA array
Method in brief: as §1

[3] = variants of: B1; test: self-cleavage kobs at 10000 uM GlcN6P; higher = faster cleavage; RNA array
Method in brief: as §1

| Variant | self-cleavage kobs at 640 uM GlcN6P [1] | self-cleavage kobs at 2500 uM GlcN6P [2] | self-cleavage kobs at 10000 uM GlcN6P [3] |
| --- | --- | --- | --- |
| A15G C34A A64C | < 1e-05 s⁻¹ |  |  |
| A6G G40A C67U | < 1e-05 s⁻¹ | < 1e-05 s⁻¹ |  |
| A33C A42U C67A | < 1e-05 s⁻¹ |  |  |
| U46G C67U C71A | 6.72e-05 ± 2e-05 s⁻¹ |  |  |
| G13C A39C C61A C70U | < 1e-05 s⁻¹ |  |  |
| A36U U45A C50U U54C U57A | < 1e-05 s⁻¹ | < 1e-05 s⁻¹ |  |
| G7U G40A G59U | < 1e-05 s⁻¹ |  |  |
| A12U C34G G51U U57A U65G | < 1e-05 s⁻¹ |  |  |
| G7A A39U U49A | < 1e-05 s⁻¹ |  |  |
| C10G G13A G43A C50U | < 1e-05 s⁻¹ | < 1e-05 s⁻¹ | < 1e-05 s⁻¹ |
| A15G U45A A53G | 0.0131 ± 0.0027 s⁻¹ |  |  |
| G37C G62C G63C C67U | < 1e-05 s⁻¹ |  |  |
| U47A A48C | 0.000145 ± 2.2e-05 s⁻¹ | 0.000222 ± 3.6e-05 s⁻¹ | 0.000561 ± 0.0001 s⁻¹ |
| G29C U31G A36U | < 1e-05 s⁻¹ |  |  |
| A6G C16A G35U A48U | < 1e-05 s⁻¹ | < 1e-05 s⁻¹ |  |
| C58A C61G C68U | 0.000169 ± 7.3e-05 s⁻¹ |  |  |
| C61G C68U U69A | < 1e-05 s⁻¹ |  |  |

| Variant | self-cleavage kobs at 640 uM GlcN6P [1] | self-cleavage kobs at 2500 uM GlcN6P [2] | self-cleavage kobs at 10000 uM GlcN6P [3] |
| --- | --- | --- | --- |
| U31G G37C U45G C70U | < 1e-05 s⁻¹ | < 1e-05 s⁻¹ |  |
| G35A U46C U65A | < 1e-05 s⁻¹ |  | < 1e-05 s⁻¹ |
| C8U A14C A15C | < 1e-05 s⁻¹ |  |  |
| G29U A42G U45C | 6.45e-05 ± 2.4e-05 s⁻¹ | 0.000107 ± 3.3e-05 s⁻¹ |  |
| G9C A39U A42C U56G | < 1e-05 s⁻¹ |  |  |
| C11U C67A C71U | 4.57e-05 ± 1.8e-05 s⁻¹ | 5.18e-05 ± 1.8e-05 s⁻¹ |  |
| U47A G63A | < 1e-05 s⁻¹ |  |  |
| A6G G37U U47G C50G C58G C67A | 7e-05 ± 2.9e-05 s⁻¹ |  |  |
| U49C C58U G66A | < 1e-05 s⁻¹ |  |  |
| C61U G66C | < 1e-05 s⁻¹ | < 1e-05 s⁻¹ |  |
| A39U U49C C68G | < 1e-05 s⁻¹ | < 1e-05 s⁻¹ | < 1e-05 s⁻¹ |
| A6G C16G G32A | < 1e-05 s⁻¹ | < 1e-05 s⁻¹ |  |
| C8A G29C A36C G63A | < 1e-05 s⁻¹ |  |  |
| A14U A15G G37A | 0.000119 ± 2.8e-05 s⁻¹ | 0.000224 ± 4.9e-05 s⁻¹ |  |
| A36G G37C U46C | < 1e-05 s⁻¹ | < 1e-05 s⁻¹ |  |
| C8A G9A A15G A48C U57A G60A | < 1e-05 s⁻¹ |  |  |
| A6U G40C G44C C50U | < 1e-05 s⁻¹ | < 1e-05 s⁻¹ |  |
